Source: PMC3784395, “Ectopic Expression of WUS in Hypocotyl Promotes Cell Division via GRP23 in Arabidopsis”

B1: GRP23 promoter probe wt (-748 to -709) (dsDNA)
DNA 1: CATATATCTTTAATACTGTTAATGATCTTTCTTCAAAAAC
DNA 2: GTTTTTGAAGAAAGATCATTAACAGTATTAAAGATATATG
B2: GRP23 promoter mutant (both TAAT to GGGG) (dsDNA)
DNA 1: CATATATCTTGGGGACTGTGGGGGATCTTTCTTCAAAAAC
DNA 2: GTTTTTGAAGAAAGATCCCCCACAGTCCCCAAGATATATG

What was measured:
GST-WUS (WUSCHEL) [1] = biological target: T1, GST-WUS (WUSCHEL) (UniProt Q9SB92 1-292); test: EMSA; Lightshift Chemiluminescent EMSA kit (Pierce), per manufacturer; buffer, salt, pH and temperature not stated; conditions: protein: recombinant; chain copies: 2; label: 3' biotin on both strands (probe); blunt
T1 sequence: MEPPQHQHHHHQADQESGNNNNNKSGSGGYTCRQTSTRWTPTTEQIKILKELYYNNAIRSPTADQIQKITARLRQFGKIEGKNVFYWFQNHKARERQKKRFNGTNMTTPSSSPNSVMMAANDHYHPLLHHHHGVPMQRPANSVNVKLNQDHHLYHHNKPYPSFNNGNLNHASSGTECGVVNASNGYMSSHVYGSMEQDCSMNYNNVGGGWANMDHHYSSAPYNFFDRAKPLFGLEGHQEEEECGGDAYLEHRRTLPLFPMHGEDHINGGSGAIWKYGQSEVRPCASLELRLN

GST-WUS (WUSCHEL) [2] = biological target: T1, GST-WUS (WUSCHEL); test: competition; unlabeled mutant competitor up to 800x excess vs labeled N1; Lightshift Chemiluminescent EMSA kit (Pierce), per manufacturer; buffer, salt, pH and temperature not stated; conditions: protein: recombinant; chain copies: 2; blunt

Binder	binding result (GST-WUS (WUSCHEL) [1])	binding result (GST-WUS (WUSCHEL) [2])
B1	binds	
B2		no binding
